The target in data set [1] is T1, Aβ (1-40) (Homo sapiens, UniProt P05067).
T1 construct: Aβ (1-40) was purchased from Anaspec, Inc. (Fremont, Calif.) as lyophilized powder; purchased Anaspec, Inc. (Fremont, Calif.)
As to the kind of experiment: Proteolytic fragmentation assay of Aβ with peptides (Proteinase K). The class given is binding. The note with it: 3:1 molar excess of peptides, detection by 4G8. As for the experimental part: (§1) Aβ (1-40) was purchased from Anaspec, Inc. (Fremont, Calif.) as lyophilized powder. For dynamic light scattering, ThT fluorescence assay, TEM, NTA measurement and filtration/sedimentation assay, Aβ was dissolved in 50% ACN, re-lyophilized, and reconstituted in 8M urea at 12 mg/mL. Aβ stock was then aliquoted, snap-frozen in ethanol with dry ice, and stored at −80° C. For PICUP and proteolytic fragmentation analysis, lyophilized Aβ was dissolved in prechilled hexafluoroisopropanol (HFIP, Acros Organics, Geel, Belgium), aliquoted, dried and stored at −20° C. as previously described (Cho et al., 2014). Aβ sample was prepared right before use by dissolving dried peptides in 50 mM NaOH and diluting into phosphate-buffered saline (PBSA) (10 mM Na2HPO4/NaH2PO4, 150 mM NaCL and 0.02% NaN3 (pH 7.4)) to 30 μM as previously described (Cho et al., 2014).
The proteolytic fragmentation assay of Aβ with peptides was performed as previously described in detail (Cho et al., 2014). Briefly, Aβ alone (20 μM) or with peptide (60 μM) was incubated for 24 hr at 37° C. Proteinase K (Promega, Madison, Wis.) was added to the samples at a final concentration of 0.5 μg/mL and samples were dotted onto a 0.45 μm nitrocellulose membrane (Pierce) after incubation for 0, 5, 10, 20, 30, 40, 50, 60, 90 and 120 min. Membranes were then reacted with monoclonal antibodies against Aβ (6E10, Covance, against Aβ (3-8) and 4G8 against Aβ (18-22)) and visualized.

In data set [2] the test system is primary cortical neuronal cells. As to the kind of experiment: In vitro cellular toxicity of Aβ (1-42), MTS assay. The class given is cell-based, mice. The note with it: for protection against Aβ toxicity: 10 μM Aβ. As for the experimental part: Aβ toxicity was assessed as described in detail previously (Yang et al., 2013; Cho et al., 2014). Briefly, the primary cortical neuronal cells were cultured from embryonic 15.5 day mice and were maintained in neurobasal media till they are matured. Aβ (1-42) (American Peptide, Sunnyvale, Calif.) at 1 mg/mL in PBS was diluted to 10 μM without or with peptides as previously described (Cho et al., 2014). At 6 days in vitro (DIV), the cells were treated with either Aβ alone or Aβ incubated with different doses of mTTR and peptides. Appropriate vehicle and controls were run along with the treatments. At 8 DIV, the neurons were incubated with MTS reagent (Promega) as per manufacturer protocol for 2-3 hrs and absorbance was measured at 490 nm.

Data set [3] concerns the target T1, Aβ (1-40). As to the kind of experiment: Dynamic light scattering of Aβ aggregate growth. The class given is biochemical. The conditions noted are these: 140 μM Aβ. The protocol: as §1
Aβ stock in 8M urea prepared as stated above was thawed and sonicated for 2 min before being diluted into PBSA. Aβ alone (140 μM) or mixed with peptides (14 μM) was filtered through […] filter directly into a light scattering cuvette and placed into a bath of the index-matching solvent decahydronaphthalene with temperature controlled to 37° C. Light scattering data were collected using a Brookhaven BI-200SM system (Brookhaven Instruments Corp., Holtsville, N.Y.) and an Innova 90C-5 argon laser (Coherent, Santa Clara, Calif.) operating at 488 nm and 150 mW. The average scattering intensity at 90° was measured over 10 hr and data were normalized to the total mass concentration. The z-averaged hydrodynamic diameter was determined from the autocorrelation function using the method of cummulants.

A short description of data set [4]: Peptide self-aggregation by light scattering. The class given is physicochemical. The note with it: 80 μM, 37° C., after 1 hr of incubation. The protocol: To further probe for self-aggregation, G16, LG3, and CG3 were incubated at 80 μM at 37° C. and analyzed by light scattering.
The target in data set [5] is T1, Aβ (1-40). In words: Photoinduced cross-linking (PICUP) of Aβ and peptides. The conditions noted are these: for interaction with Aβ (shift in cross-linked Aβ size distribution): pre-aggregated Aβ, 10:1 molar excess of Aβ, Western blot 4G8. The class given is binding. The protocol:
as §1
Aβ prepared with HFIP/NaOH treatment at 30 μM as described was mixed with peptides to a final concentration of 24 μM Aβ and 2.4 μM peptides. Aβ stock was used immediately (freshly prepared) or after incubation for 24 hr at 37° C. (1 day pre-aggregated). Samples of Aβ with and without peptides were incubated for 1 hr at 37° C. and cross-linked by photo-induced cross-linking method as previously described (Cho et al., 2014). Cross-linked samples were then separated on a 10-20% Tris-Tricine gradient gel (Iinvotrogen, Carlsbad, Calif.), transferred onto a 0.2 μm poly(vinylidene difluoride) (PVDF) membrane and detected by monoclonal mouse anti-Aβ antibody 4G8 (Covance, Princeton, N.J.) as previously described (Cho et al., 2014).

Data set [6] has as its target T1, Aβ (1-40). As to the kind of experiment: Transmission electron microscopy of Aβ aggregates. It counts as biochemical. The conditions noted are these: 48 h at 37° C., 28 μM Aβ, 2.8 μM peptide. As for the experimental part: as §1
Aβ alone (28 μM) or with peptides (G16 or CG3 at 2.8 μM) were prepared in PBSA and incubated for 48 hr at 37° C. A drop of sample was placed on a pioloform-coated grid and stained with methylamine tungstate stain. Images were taken with a Philips CM120 scanning transmission electron microscope (FEI Corp., Eindhoven, The Netherlands).

Data set [7] has as its system Aβ toxicity. The conditions noted are these: cited from earlier work.
In data set [8] the target is T1, Aβ (1-40). As to the kind of experiment: Thioflavin T (ThT) fluorescence assay of Aβ aggregation. It counts as biochemical. The note with it: 28 μM Aβ; for ThT fluorescence intensity of Aβ with peptide: 2.8 μM peptide; for inhibition of ThT fluorescence increase: up to 48 h, 2.8 μM peptide or mTTR. As for the experimental part:
as §1
ThT stock solutions were prepared in PBSA and filtered through 0.22 μm filter. The concentration of ThT was measured using an extinction coefficient of 26,620 M^−1 cm^−1 at 416 nm and the stock solution was diluted to 10 μM in PBSA prior to the measurement. Aβ alone (28 μM) and with peptides (2.8 μM) or mTTR (2.8 μM) were prepared in PBSA and incubated for 48 hr at 37° C. After 1, 5, 24 and 48 hr of incubation, 10 μL of each sample was mixed with 130 μL of 10 μM ThT and analyzed. ThT fluorescence emission was measured using a QuantaMaster spectrofluometer (PTI, Birmingham, N.J.), with excitation at 440 nm and emission spectra recorded from 460 to 500 nm. Three serial spectra were averaged for each sample and the background signal of ThT in PBSA was subtracted from the averaged data. Fluorescence intensity at a wavelength of 480 nm was compared.

For data set [9], the target named is T1, Aβ (1-40). In words: Filtration/sedimentation assay of Aβ aggregation. The class given is biochemical. The protocol:
as §1
Aβ alone (30 μM) or with CG3 (3 μM) was prepared in PBSA and incubated for 24 hr at 37° C. For filtration, 175 μL of sample was filtered through 0.45 μm filter. For sedimentation, 100 μL of sample was transferred onto a separate tube and centrifuged for 30 min at 19,500 ref. The supernatant (80%) was removed. Concentrations of untreated, filtered, and centrifuged samples were measured by BCA assay (Pierce).

Data set [10] in a line: Peptide self-association by PICUP cross-linking and gel electrophoresis. It counts as physicochemical. The conditions noted are these: PICUP cross-linking, gel electrophoresis. As for the experimental part: Peptides were also cross-linked by PICUP and analyzed for self-association. Twenty microliters of peptides at 36 μM in PBSA was incubated for 1 hr at 37° C. and cross-linked. Cross-linked samples were then heated at 95° C. for 5 min and separated on a 10-20% Tris-Tricine gradient gel. Peptides were visualized by silver staining (SilverStain Kit, Pierce, Rockford, Ill.).

Entries after “also recorded” stand apart in the source; their conditions may differ. Where no end group is shown, it is not given here. [ ]: non-standard residue; d: D form.

“PRRYTIAALLSPYSWS [G16, 16-mer linear peptide, TTR residues 102-117, Y116W, reference compound]”: in data set [1], the “effect on Aβ degradation by protease” value is “Aβ degradation was delayed; also recorded: most effective in inhibiting degradation”. For the same substance, the “protection against Aβ toxicity” value in data set [2] (highest dose tested) was “small but significant protection”. Further, in [3] (14 μM peptide), the “effect on Aβ aggregation (hydrodynamic diameter, total scattered intensity)” value (shortened to “effect on Aβ aggregation”) is recorded as “increased the size of aggregates of Aβ” and the “intensity of scattered light of Aβ-peptide mixture” value is “enhanced the intensity of scattered light similarly”. Moreover, the “mean hydrodynamic size of Aβ-peptide mixture” value in data set [3] (after 5 hr, 10:1 molar excess of Aβ, 37° C.) is reported as “about 120 nm”. Moreover, the “light scattering of peptide alone” value in [4] is “scattered light above background”. Further, in data set [5] (freshly prepared or 1 day pre-aggregated Aβ), the “interaction with freshly prepared versus pre-aggregated Aβ” value is “showed no such selectivity”. In data set [5], the “interaction with Aβ (shift in cross-linked Aβ size distribution)” value is given as “interact with Aβ”. In addition, in data set [6], the “morphology of Aβ aggregates by TEM” value is listed as “still a large number of fibrils”. Moreover, the “fold less effective than full-length TTR at protecting cells from Aβ toxicity” value in data set [7] is reported as “about 25 fold”. The “ThT fluorescence intensity of Aβ with peptide” value in data set [8] (after 5 hr) is “remained low”. Besides, the “ThT fluorescence intensity of Aβ with peptide” value in [8] (after 24 hr) is “ThT-positive species were detected”. In addition, the “effect on fraction of Aβ aggregates removable by filtration or sedimentation” value in [9] was “reduce the fraction of Aβ aggregates that can be removed by filtration or sedimentation”.
As to “PRRYTIAALLSPYSWSDYKDDDDK [GF, linear peptide G16 with a C-terminal FLAG tag]”, the “self-association by PICUP” value in data set [10] is “some lower-molecular-weight multimers but none of the larger multimers”. In data set [1], the “effect on Aβ degradation by protease” value is given as “Aβ degradation was delayed”. Besides, the “protection against Aβ toxicity” value in data set [2] (10 μM peptide) is on record as “no protective effect”; in [2] (highest dose (40 μM)), “modest protection”. Besides, in data set [3] (14 μM peptide), the “effect on Aβ aggregation” value is reported as “little to no effect on Aβ aggregation”. Also, the “interaction with Aβ (shift in cross-linked Aβ size distribution)” value in [5] is “interact with Aβ”. Also, the “inhibition of ThT fluorescence increase” value in data set [8] is reported as “unable to inhibit the ThT fluorescence increase”.
On to “SKVVTPPRYTIAKLLSPYSYSQ (not fully specified; also: cyclic (type not given here)) [SEQ ID NO: 17]”, for which the “self-association by PICUP” value in [10] was “significantly less self-association than SEQ ID NO: 1”.
On to “SKVVT^DPPRYTIAALLSPYSYSQ [LG3] (SKVVT[dP]PRYTIAALLSPYSYSQ) [non-cyclized 22-mer, TTR residues 104-123 grafted onto DPro-Pro template]”, for which the “effect on Aβ degradation by protease” value in data set [1] is “Aβ degradation was delayed”. Further, the “protection against Aβ toxicity” value in [2] (10 μM peptide) is listed as “no protective effect”. The “effect on Aβ aggregation” value in data set [3] (14 μM peptide) is “little to no effect on Aβ aggregation”. Besides, the “light scattering of peptide alone” value in [4] is given as “did not scatter light above background”. Moreover, in data set [5], the “interaction with Aβ (shift in cross-linked Aβ size distribution)” value is on record as “interact with Aβ; also recorded: weaker compared to CG3”. Besides, the “inhibition of ThT fluorescence increase” value in data set [8] is reported as “unable to inhibit the ThT fluorescence increase”.
For “SKV^DPPTIAALLSPYSYSQ [CG2] (cyclo(SKV[dP]PTIAALLSPYSYSQ)) [cyclic 18-mer of TTR residues 106-121 grafted onto DPro-Pro template]”, the “effect on Aβ degradation by protease” value in data set [1] is “did not have any effect on the time course of degradation”. For the same substance, the “inhibition of Aβ toxicity (summary)” value in data set [2] is reported as “nor did they affect Aβ aggregation or inhibit Aβ toxicity”. Also, the “protection against Aβ toxicity” value in data set [2] (10 μM peptide) is listed as “no protective effect”. Moreover, in data set [3] (14 μM peptide), the “effect on Aβ aggregation” value is on record as “did not affect Aβ aggregation; also recorded: nor did they affect Aβ aggregation”. Also, the “interaction with Aβ (shift in cross-linked Aβ size distribution)” value in data set [5] is given as “do not show signs of interaction with Aβ”.
On to “SKV^DPPTIAALLSPYSYSQ [LG2] (SKV[dP]PTIAALLSPYSYSQ) [non-cyclized 18-mer, TTR residues 106-121 grafted onto DPro-Pro template]”, for which the “self-association by PICUP” value in data set [10] is on record as “oligomer distribution was shifted towards lower molecular weight”. Moreover, the “inhibition of Aβ toxicity (summary)” value in data set [2] was “nor did they affect Aβ aggregation or inhibit Aβ toxicity”. For the same substance, the “effect on Aβ aggregation” value in data set [3] (14 μM peptide) is listed as “nor did they affect Aβ aggregation”. For the same substance, the “interaction with Aβ (shift in cross-linked Aβ size distribution)” value in data set [5] is recorded as “do not show signs of interaction with Aβ”.

(Values after patent US9809627B2, “Cyclized transthyretin peptide and methods of use therefor” (Wisconsin Alumni Research Foundation, priority 2014, dated 2017).)
